System: T1, CC(=O)N[C@H]1[C@H](Oc2ccc([N+](=O)[O-])cc2)O[C@H](CO)[C@@H](O[C@@H]2O[C@H](CO)[C@@H](O[C@@H]3O[C@H](CO)[C@@H](O)[C@H](O)[C@H]3NC(C)=O)[C@H](O)[C@H]2NC(C)=O)[C@@H]1O
T1 construct: synthetic gene, codon-optimised, pPICZαA (EcoRI/KpnI), secreted from Pichia pastoris KM71H, purified by Q-Sepharose
Assay: purified protein
Assay type: biochemical, Talaromyces flavus
Conditions: 50 mM citrate/phosphate pH 5.0, 25 °C, 0.1–6 mM substrate

Chain of TfChit (Talaromyces flavus; D136V/S181W) (chain, as listed by the source D136V S181W): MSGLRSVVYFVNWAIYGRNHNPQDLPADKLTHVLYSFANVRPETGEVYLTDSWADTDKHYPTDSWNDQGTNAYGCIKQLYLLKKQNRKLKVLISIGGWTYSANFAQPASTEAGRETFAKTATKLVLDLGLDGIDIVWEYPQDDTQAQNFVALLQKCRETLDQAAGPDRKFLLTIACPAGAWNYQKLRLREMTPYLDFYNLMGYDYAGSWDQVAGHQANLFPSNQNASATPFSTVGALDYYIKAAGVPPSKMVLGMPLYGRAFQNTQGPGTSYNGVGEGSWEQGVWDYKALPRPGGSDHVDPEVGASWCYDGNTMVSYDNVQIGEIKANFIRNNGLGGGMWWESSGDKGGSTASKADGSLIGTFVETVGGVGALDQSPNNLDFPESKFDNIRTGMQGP
Chain of TfChit (Talaromyces flavus; D136V/W209A) (chain, as listed by the source D136V W209A): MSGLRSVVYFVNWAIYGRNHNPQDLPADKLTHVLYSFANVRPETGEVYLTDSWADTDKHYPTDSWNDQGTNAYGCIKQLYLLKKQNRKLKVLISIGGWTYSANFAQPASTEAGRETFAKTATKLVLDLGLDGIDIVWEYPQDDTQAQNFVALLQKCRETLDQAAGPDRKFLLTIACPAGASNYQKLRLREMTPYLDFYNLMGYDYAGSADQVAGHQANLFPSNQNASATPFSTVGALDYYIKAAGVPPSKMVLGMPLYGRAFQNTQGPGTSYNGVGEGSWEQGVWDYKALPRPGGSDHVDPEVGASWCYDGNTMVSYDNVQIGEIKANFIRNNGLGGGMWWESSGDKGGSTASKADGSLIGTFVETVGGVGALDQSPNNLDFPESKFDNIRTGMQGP
Chain of TfChit (Talaromyces flavus) (chain, as listed by the source): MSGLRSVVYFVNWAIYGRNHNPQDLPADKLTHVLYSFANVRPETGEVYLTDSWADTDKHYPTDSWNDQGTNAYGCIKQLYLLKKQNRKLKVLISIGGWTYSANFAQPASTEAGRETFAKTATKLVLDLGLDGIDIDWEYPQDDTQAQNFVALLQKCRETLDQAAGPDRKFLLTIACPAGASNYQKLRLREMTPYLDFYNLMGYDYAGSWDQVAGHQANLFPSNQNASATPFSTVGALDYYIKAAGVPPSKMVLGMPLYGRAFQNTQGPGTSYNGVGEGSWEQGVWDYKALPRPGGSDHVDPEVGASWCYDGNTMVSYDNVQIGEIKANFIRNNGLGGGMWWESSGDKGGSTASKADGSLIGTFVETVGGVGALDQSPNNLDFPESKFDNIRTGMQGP
Chain of TfChit (Talaromyces flavus; D136V) (chain, as listed by the source D136V): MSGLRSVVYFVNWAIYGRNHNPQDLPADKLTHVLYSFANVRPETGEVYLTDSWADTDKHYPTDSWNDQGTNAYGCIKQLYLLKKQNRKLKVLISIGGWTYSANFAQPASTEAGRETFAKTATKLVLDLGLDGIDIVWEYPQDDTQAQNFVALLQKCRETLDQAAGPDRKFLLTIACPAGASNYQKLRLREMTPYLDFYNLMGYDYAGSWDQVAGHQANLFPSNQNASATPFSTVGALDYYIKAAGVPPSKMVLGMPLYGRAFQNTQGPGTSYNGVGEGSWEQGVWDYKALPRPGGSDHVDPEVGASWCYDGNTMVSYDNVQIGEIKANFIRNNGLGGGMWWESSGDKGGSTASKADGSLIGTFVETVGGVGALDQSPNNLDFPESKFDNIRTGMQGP
Chain of TfChit (Talaromyces flavus; D136V/S181W/W209A) (chain, as listed by the source D136V S181W W209A): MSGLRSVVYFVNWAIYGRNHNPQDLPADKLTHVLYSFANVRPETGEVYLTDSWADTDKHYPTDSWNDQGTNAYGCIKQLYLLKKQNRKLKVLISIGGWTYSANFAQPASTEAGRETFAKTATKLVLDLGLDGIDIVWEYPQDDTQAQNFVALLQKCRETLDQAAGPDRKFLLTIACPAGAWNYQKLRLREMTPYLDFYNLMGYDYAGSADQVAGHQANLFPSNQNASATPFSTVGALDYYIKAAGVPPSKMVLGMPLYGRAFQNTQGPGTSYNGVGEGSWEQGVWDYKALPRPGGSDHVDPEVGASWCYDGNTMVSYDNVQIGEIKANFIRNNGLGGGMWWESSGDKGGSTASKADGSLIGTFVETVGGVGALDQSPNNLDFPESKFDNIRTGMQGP
Chain of TfChit (Talaromyces flavus; F231W) (chain, as listed by the source F231W): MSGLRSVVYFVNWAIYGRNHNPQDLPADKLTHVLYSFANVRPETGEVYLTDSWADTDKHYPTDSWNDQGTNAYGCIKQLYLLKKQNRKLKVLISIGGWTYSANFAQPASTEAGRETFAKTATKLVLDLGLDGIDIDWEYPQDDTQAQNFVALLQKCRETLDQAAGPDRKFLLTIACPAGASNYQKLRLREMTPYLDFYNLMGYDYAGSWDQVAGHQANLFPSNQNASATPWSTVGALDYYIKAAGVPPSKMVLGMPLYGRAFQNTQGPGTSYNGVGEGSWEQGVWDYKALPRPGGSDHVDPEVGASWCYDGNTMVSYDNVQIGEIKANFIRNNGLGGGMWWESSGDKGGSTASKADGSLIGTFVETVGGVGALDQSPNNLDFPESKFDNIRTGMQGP
Chain of TfChit (Talaromyces flavus; W209A) (chain, as listed by the source W209A): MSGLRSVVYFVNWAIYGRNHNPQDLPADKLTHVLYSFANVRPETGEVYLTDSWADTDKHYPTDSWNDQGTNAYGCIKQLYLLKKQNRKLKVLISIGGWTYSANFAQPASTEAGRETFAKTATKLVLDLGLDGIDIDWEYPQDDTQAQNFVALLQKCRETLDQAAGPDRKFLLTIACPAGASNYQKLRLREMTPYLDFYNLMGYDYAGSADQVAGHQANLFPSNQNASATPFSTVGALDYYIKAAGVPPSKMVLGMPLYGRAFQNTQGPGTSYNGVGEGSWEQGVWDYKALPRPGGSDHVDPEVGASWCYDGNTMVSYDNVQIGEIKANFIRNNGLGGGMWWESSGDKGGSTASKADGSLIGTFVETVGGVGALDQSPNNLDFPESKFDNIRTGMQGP
Chain of TfChit (Talaromyces flavus; S181W/W209A) (chain, as listed by the source S181W W209A): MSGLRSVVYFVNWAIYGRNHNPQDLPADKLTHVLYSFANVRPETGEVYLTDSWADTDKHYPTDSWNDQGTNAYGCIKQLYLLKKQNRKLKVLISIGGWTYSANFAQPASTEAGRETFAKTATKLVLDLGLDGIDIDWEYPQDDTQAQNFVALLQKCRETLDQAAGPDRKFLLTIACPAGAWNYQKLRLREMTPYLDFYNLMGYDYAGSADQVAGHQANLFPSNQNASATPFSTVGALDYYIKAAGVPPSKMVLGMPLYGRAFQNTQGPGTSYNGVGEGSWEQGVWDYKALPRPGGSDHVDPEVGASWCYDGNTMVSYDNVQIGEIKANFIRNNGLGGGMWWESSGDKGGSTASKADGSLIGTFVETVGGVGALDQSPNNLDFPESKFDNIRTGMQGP
Chain of TfChit (Talaromyces flavus; F231W/W209A) (chain, as listed by the source F231W W209A): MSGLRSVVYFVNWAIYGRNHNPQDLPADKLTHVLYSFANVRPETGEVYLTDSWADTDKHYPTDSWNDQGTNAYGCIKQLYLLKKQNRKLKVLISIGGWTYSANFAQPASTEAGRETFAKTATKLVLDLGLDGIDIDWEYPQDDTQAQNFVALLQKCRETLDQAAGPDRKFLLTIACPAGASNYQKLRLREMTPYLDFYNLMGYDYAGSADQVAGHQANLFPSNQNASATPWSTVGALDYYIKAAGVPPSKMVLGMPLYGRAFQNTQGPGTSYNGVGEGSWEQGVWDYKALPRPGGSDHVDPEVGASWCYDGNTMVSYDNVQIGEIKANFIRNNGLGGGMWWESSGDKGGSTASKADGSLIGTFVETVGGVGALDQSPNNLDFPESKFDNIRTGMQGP
Chain of TfChit (Talaromyces flavus; S181W) (chain, as listed by the source S181W): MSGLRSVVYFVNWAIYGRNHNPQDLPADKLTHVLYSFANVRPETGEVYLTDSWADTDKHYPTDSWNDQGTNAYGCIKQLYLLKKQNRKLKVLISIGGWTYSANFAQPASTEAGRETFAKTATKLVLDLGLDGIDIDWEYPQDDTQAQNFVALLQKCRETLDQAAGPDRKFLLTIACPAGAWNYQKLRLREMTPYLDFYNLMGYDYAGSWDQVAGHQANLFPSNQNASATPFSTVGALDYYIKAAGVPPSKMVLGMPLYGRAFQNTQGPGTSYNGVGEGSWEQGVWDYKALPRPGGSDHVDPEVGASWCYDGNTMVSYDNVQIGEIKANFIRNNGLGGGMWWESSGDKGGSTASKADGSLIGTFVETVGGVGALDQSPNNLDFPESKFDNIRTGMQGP

Question: With TfChit (Talaromyces flavus; F231W) as the substance, how does the Km read?
Answer: Its Km is 1.1 mmol·L^–1.

Question: What about the kcat of the same substance?
Answer: The kcat was 1.9 s⁻¹.

Question: And the kcat/Km?
Answer: Its kcat/Km is 1800 M⁻¹ s⁻¹.

Question: TfChit (Talaromyces flavus; S181W) was tested. Which Km did it give?
Answer: The Km was 1.5 mmol·L^–1.

Question: And the kcat?
Answer: Its kcat is 6 s⁻¹.

Question: What about the kcat/Km of the same substance?
Answer: Its kcat/Km is 4000 M⁻¹ s⁻¹.

Question: How did the Km turn out when “TfChit (Talaromyces flavus; S181W/W209A)” was run?
Answer: The Km was 2.6 mmol·L^–1.

Question: What about the kcat of the same substance?
Answer: The kcat was 3.1 s⁻¹.

Question: What about the kcat/Km of the same substance?
Answer: Its kcat/Km is 1200 M⁻¹ s⁻¹.

Question: For “TfChit (Talaromyces flavus; F231W/W209A)”, which Km is on record?
Answer: The Km was 1.3 mmol·L^–1.

Question: What about the kcat of the same substance?
Answer: The kcat was 4.7 s⁻¹.

Question: And the kcat/Km?
Answer: The kcat/Km was 3500 M⁻¹ s⁻¹.

Question: Which results are given for “TfChit (Talaromyces flavus; D136V/S181W/W209A)”?
Answer: Km: 2.0 mmol·L^–1; kcat: 5.6 s⁻¹; kcat/Km: 2800 M⁻¹ s⁻¹

Question: With “TfChit (Talaromyces flavus; D136V/W209A)” as the substance, how does the Km read?
Answer: The Km was 3.6 mmol·L^–1.

Question: What about the kcat of the same substance?
Answer: The kcat was 8.2 s⁻¹.

Question: What about the kcat/Km of the same substance?
Answer: Its kcat/Km is 2200 M⁻¹ s⁻¹.

Question: How did the Km turn out when “TfChit (Talaromyces flavus; D136V/S181W)” was run?
Answer: The Km was 4.3 mmol·L^–1.

Question: And the kcat?
Answer: Its kcat is 5.3 s⁻¹.

Question: And the kcat/Km?
Answer: The kcat/Km was 1200 M⁻¹ s⁻¹.

Question: What does the source list for TfChit (Talaromyces flavus; D136V)?
Answer: Km: 1.1 mmol·L^–1; kcat: 5.3 s⁻¹; kcat/Km: 5000 M⁻¹ s⁻¹

Question: With TfChit (Talaromyces flavus; W209A) as the substance, how does the Km read?
Answer: Its Km is 3.3 mmol·L^–1.

Question: And the kcat?
Answer: Its kcat is 6.1 s⁻¹.

Question: And the kcat/Km?
Answer: The kcat/Km was 1900 M⁻¹ s⁻¹.

Question: With TfChit (Talaromyces flavus) as the substance, how does the Km read?
Answer: Its Km is 1.2 mmol·L^–1.

Question: And the kcat?
Answer: Its kcat is 3.9 s⁻¹.

Question: What about the kcat/Km of the same substance?
Answer: The kcat/Km was 3300 M⁻¹ s⁻¹.
